Measured values as given in article PMC4444369 (Journal of molecular biology, 2014).

Target: APC3 (wild-type, untagged) (human, UniProt P30260-2 1-830)
Assay: SEC

binding result: binds
B1: APC16^C (Strep tag removed by TEV) (domain or fragment)
chain: not shown
